From article PMC6382854 (2019)
Numbering of substitutions follows the chain as printed.

B1: 6xHis-tagged CC1ΔC223 (cytosolic N-terminal part of COMPANION OF CELLULOSE SYNTHASE 1, residues 1-120) (domain or fragment)
chain: MHAKTDSEVTSLAASSPARSPRRPVYYVQSPSRDSHDGEKTATSFHSTPVLSPMGSPPHSHSSMGRHSRESSSSRFSGSLKPGSRKVNPNDGSKRKGHGGEKQWKECAVIEEEGLLDDGD
B2: 6xHis-tagged CC1ΔC223YYAA (domain or fragment)
chain: B1 chain with Y26A, Y27A

Target: taxol-stabilized microtubules (polymerized porcine tubulin) (porcine, UniProt P02550 1-451; P02554 1-445)
Sequence (P02550 whole entry, chain 1 of 2): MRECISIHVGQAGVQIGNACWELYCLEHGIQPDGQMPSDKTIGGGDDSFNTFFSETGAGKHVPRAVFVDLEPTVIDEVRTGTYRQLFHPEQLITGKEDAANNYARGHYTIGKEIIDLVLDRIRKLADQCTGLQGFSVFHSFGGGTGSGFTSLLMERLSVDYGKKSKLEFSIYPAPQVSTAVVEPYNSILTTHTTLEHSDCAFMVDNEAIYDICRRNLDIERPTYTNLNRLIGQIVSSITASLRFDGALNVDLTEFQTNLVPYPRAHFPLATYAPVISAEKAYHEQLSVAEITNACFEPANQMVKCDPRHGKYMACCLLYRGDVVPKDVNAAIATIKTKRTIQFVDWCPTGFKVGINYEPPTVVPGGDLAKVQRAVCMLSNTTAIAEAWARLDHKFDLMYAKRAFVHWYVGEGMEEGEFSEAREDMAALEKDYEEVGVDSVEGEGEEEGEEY
Sequence (P02554 whole entry, chain 2 of 2): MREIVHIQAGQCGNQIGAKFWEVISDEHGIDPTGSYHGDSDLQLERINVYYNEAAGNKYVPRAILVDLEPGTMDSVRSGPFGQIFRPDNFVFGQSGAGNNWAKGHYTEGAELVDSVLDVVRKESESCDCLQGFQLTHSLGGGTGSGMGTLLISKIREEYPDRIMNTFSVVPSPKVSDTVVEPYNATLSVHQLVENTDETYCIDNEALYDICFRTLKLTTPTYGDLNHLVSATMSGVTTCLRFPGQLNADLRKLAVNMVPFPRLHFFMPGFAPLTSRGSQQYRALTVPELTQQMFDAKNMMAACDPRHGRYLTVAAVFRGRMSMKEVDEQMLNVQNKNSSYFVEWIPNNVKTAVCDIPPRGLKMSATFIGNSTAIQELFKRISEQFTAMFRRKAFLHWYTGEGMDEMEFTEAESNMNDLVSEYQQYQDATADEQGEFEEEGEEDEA

Binder | Kd
B1 | 6.9 µM
B2 | 16.3 µM
